Measurements published in IntAct's records for PubMed 12084722.

Molecular target: apoa1_human APOA1 (UniProt P02647)
Sequence (P02647 whole entry): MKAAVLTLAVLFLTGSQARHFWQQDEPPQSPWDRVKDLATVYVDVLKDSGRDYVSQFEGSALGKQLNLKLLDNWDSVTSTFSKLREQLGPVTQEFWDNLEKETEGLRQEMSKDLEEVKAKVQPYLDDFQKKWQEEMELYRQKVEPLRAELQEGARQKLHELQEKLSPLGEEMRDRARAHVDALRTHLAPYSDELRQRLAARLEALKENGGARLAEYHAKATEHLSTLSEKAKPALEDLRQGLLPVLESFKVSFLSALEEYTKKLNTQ

effect of a mutation on the interaction | Substance
disrupting interaction strength | Phospholipid-transporting ATPase ABCA1 (Homo sapiens), O95477 C1477R
disrupting interaction strength | Phospholipid-transporting ATPase ABCA1 (Homo sapiens), O95477 Q597R
disrupting interaction strength | Phospholipid-transporting ATPase ABCA1 (Homo sapiens), O95477 R587W
disrupting interaction strength | Phospholipid-transporting ATPase ABCA1 (Homo sapiens), O95477 S1506L
increasing interaction strength | Phospholipid-transporting ATPase ABCA1 (Homo sapiens), O95477 W590S
